The target of data set [1] is T1, LPETG (SEQ ID NO: 32) substrate.
T1 chain: LPETG

The target in data set [2] is LPESG (SEQ ID NO: 38) substrate.
Data set [3] addresses T2, human CD154 tagged with the LPETG sequence at its C terminus (human, UniProt P29965 1-261).
T2 sequence: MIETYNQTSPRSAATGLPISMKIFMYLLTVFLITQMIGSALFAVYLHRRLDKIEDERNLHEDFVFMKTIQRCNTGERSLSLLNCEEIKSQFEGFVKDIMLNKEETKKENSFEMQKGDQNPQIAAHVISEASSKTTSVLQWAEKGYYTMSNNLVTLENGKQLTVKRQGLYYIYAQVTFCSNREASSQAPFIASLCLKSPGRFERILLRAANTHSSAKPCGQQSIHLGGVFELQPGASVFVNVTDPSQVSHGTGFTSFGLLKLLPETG
Put plainly: cell-based or functional assay.

Another data set has as its target T3, Abz-LPETGK(Dnp)-CONH2.
T3 chain: LPETGK

Another data set concerns the target T4, Gly-Gly-Gly-COOH (GGG).
T4 chain: GGG

B1: Sortase 4S.4 (protein)
chain: QAKPQIPKDKSKVAGYIEIPDADIKELVYPGPATREQLSRGVSFTEENESLDDQNISITGHTSIGRPSYQFTNLRAAKKGSMVYFKVGNETRKYKMTSIRNVKPTAVEVLDEQEGKDEQLTLITCDDYNEETGVWETRKIFVATEVK
Consider B1, for which, in data set [1], the “activity against LPETG” value was “completely abrogated activity against LPETG (SEQ ID NO: 32)”. In data set [2], the “activity against LPESG” value was “activity against LPESG (SEQ ID NO: 38) comparable to the starting type pentamutant” and the “altered substrate specificity, LPESG against LPETG, as determined by Kcat/Km (HPLC-based substrate cleavage assay)” value is given as “remarkably altered substrate specificity (>4000-fold, as determined by Kcat/Km)”.

B2: optimized variant 4S.12.2 (protein)
chain: QAKPQIPKDKSKVAGYIEIPDADIKEPVYPGPATREQLSRGVSFTEENESLDDQNISITGHTSIGRPNYQFTNLRAAKKGSMVYFKVGNETRKYKMTSIRNVKPTAVEVLDEQEGKDEQLTLITCDDYNEETGVWETRKIFVATEVK
As to B2, the “activity against LPETG” value in data set [1] is given as “completely abrogated activity against LPETG (SEQ ID NO: 32)”. In data set [2], the “activity against LPESG” value was “activity against LPESG (SEQ ID NO: 38) comparable to the starting type pentamutant”.

B3: wild type S. aureus sortase A (enzyme)
chain: MQAKPQIPKDKSKVAGYIEIPDADIKEPVYPGPATPEQLNRGVSFAEENESLDDQNISIAGHTFIDRPNYQFTNLKAAKKGSMVYFKVGNETRKYKMTSIRDVKPTDVEVLDEQKGKDKQLTLITCDDYNEKTGVWEKRKIFVATEVKLEHHHHHH
With B3, the “fluorescence of live HeLa cells labeled with GGGYK-biotin over background without enzyme, flow cytometry” value in data set [3] is no more than 2.8 fold. Besides, the kcat/Km LPETG in the data set with Abz-LPETGK(Dnp)-CONH2 came out at 200 M⁻¹ s⁻¹.

B4: P94S/D160N/D165A/K196T sortase A (protein)
chain: MQAKPQIPKDKSKVAGYIEIPDADIKEPVYPGPATSEQLNRGVSFAEENESLDDQNISIAGHTFIDRPNYQFTNLKAAKKGSMVYFKVGNETRKYKMTSIRNVKPTAVEVLDEQKGKDKQLTLITCDDYNEKTGVWETRKIFVATEVKLEHHHHHH
Consider B4, for which, in the data set with Abz-LPETGK(Dnp)-CONH2, the “fold decrease in KM LPETG compared to wild type” value is reported as “The 50-fold decrease in KM LPETG of the tetramutant compared to wild type”, the “fold improved LPETG recognition compared to wild type” value is given as 45-fold improved LPETG (SEQ ID NO: 32) recognition, the “fold improvement in kcat/Km LPETG compared to wild type” value is reported as “a 140-fold improvement in its ability to convert LPETG (SEQ ID NO: 32) (kcat/Km LPETG)” and the kcat/Km LPETG stood at 28000 ± 7000 M⁻¹ s⁻¹. Further, the “fold increase in Km GGG compared to wild type” value with Gly-Gly-Gly-COOH (GGG) is “a 30-fold increase in Km GGG for the sortase A tetramutant”.

B5: P94S/D160N/K196T srtA (enzyme)
chain: MQAKPQIPKDKSKVAGYIEIPDADIKEPVYPGPATSEQLNRGVSFAEENESLDDQNISIAGHTFIDRPNYQFTNLKAAKKGSMVYFKVGNETRKYKMTSIRNVKPTDVEVLDEQKGKDKQLTLITCDDYNEKTGVWETRKIFVATEVKLEHHHHHH
Take B5: the “median fluorescence (streptavidin-AlexaFluor594) of live HeLa cells labeled with GGGYK-biotin, flow cytometry” value in data set [3] was no less than 30 fold. In the data set with Abz-LPETGK(Dnp)-CONH2, the fold increase in KM LPETG compared to the tetramutant is 3 fold and the kcat/Km LPETG amounted to 8600 ± 1500 M⁻¹ s⁻¹. The “fold improvement in Km GGG compared to the tetramutant” value (“fold improvement in Km GGG” for short) in the data set with Gly-Gly-Gly-COOH (GGG) is given as “a 2.6-fold improvement in Km GGG”.

B6: P94S/D160N/D165A sortase A (protein)
chain: MQAKPQIPKDKSKVAGYIEIPDADIKEPVYPGPATSEQLNRGVSFAEENESLDDQNISIAGHTFIDRPNYQFTNLKAAKKGSMVYFKVGNETRKYKMTSIRNVKPTAVEVLDEQKGKDKQLTLITCDDYNEKTGVWEKRKIFVATEVKLEHHHHHH
For the molecule B6, in the data set with Abz-LPETGK(Dnp)-CONH2, the “fold change in KM LPETG compared to the tetramutant” value is given as “KM LPETG were not altered by more than a factor of 3-fold” and the kcat/Km LPETG worked out at 7500 ± 300 M⁻¹ s⁻¹. In the data set with Gly-Gly-Gly-COOH (GGG), the “fold improvement in Km GGG” value is “the Km GGG of this mutant improved by 2.7-fold”.

B7: D160N/K190E/K196T (clone 4.2) (protein)
chain: MQAKPQIPKDKSKVAGYIEIPDADIKEPVYPGPATPEQLNRGVSFAEENESLDDQNISIAGHTFIDRPNYQFTNLKAAKKGSMVYFKVGNETRKYKMTSIRNVKPTDVEVLDEQKGKDKQLTLITCDDYNEETGVWETRKIFVATEVKLEHHHHHH
Turning to B7, in the data set with Abz-LPETGK(Dnp)-CONH2, the “fold enhancement in catalytic efficiency compared to wild type” value is recorded as “an approximately 15-fold enhancement in catalytic efficiency at using the LPETG (SEQ ID NO: 32) substrate”, the “fold reduction in Km LPETG compared to wild type” value is “a 5-7-fold reduction in Km LPETG” and the kcat/Km LPETG turned out to be 2400 ± 700 M⁻¹ s⁻¹.

B8: srtA P94S (protein)
chain: MQAKPQIPKDKSKVAGYIEIPDADIKEPVYPGPATSEQLNRGVSFAEENESLDDQNISIAGHTFIDRPNYQFTNLKAAKKGSMVYFKVGNETRKYKMTSIRDVKPTDVEVLDEQKGKDKQLTLITCDDYNEKTGVWEKRKIFVATEVKLEHHHHHH
On to B8, for which the kcat/Km LPETG in the data set with Abz-LPETGK(Dnp)-CONH2 worked out at 600 M⁻¹ s⁻¹.

B9: P94R/D160N/D165A/K190E/K196T srtA (protein)
chain: MQAKPQIPKDKSKVAGYIEIPDADIKEPVYPGPATREQLNRGVSFAEENESLDDQNISIAGHTFIDRPNYQFTNLKAAKKGSMVYFKVGNETRKYKMTSIRNVKPTAVEVLDEQKGKDKQLTLITCDDYNEETGVWETRKIFVATEVKLEHHHHHH
Consider B9, for which, in the data set with Abz-LPETGK(Dnp)-CONH2, the “Km LPETG (fit of the one-hour time course, FIG. 16)” value is reported as “Km LPETG=245±5 µM”; the “fold change in KM LPETG compared to the tetramutant” value was “the kcat and KM LPETG were not altered by more than a factor of 1.3-fold”; the “fold higher kcat/KM LPETG compared with wild type srtA” value is given as “a 120-fold higher kcat/KM LPETG”; the kcat/Km LPETG was found to be 23000 ± 3000 M⁻¹ s⁻¹. In the data set with Gly-Gly-Gly-COOH (GGG), the “fold higher Km GGG compared with wild type srtA” value was “a 20-fold higher Km GGG” and the “fold improvement in Km GGG” value is “the Km GGG of this mutant improved by 1.8-fold”.

B10: srtA D165A (protein)
chain: MQAKPQIPKDKSKVAGYIEIPDADIKEPVYPGPATPEQLNRGVSFAEENESLDDQNISIAGHTFIDRPNYQFTNLKAAKKGSMVYFKVGNETRKYKMTSIRDVKPTAVEVLDEQKGKDKQLTLITCDDYNEKTGVWEKRKIFVATEVKLEHHHHHH
For the molecule B10, the kcat/Km LPETG with Abz-LPETGK(Dnp)-CONH2 came out at 700 M⁻¹ s⁻¹.

B11: srtA D160N (protein)
chain: MQAKPQIPKDKSKVAGYIEIPDADIKEPVYPGPATPEQLNRGVSFAEENESLDDQNISIAGHTFIDRPNYQFTNLKAAKKGSMVYFKVGNETRKYKMTSIRNVKPTDVEVLDEQKGKDKQLTLITCDDYNEKTGVWEKRKIFVATEVKLEHHHHHH
In the case of B11, the kcat/Km LPETG with Abz-LPETGK(Dnp)-CONH2 came out at 600 M⁻¹ s⁻¹.

B12: P94S/D165A (clone 4.3) (protein)
chain: MQAKPQIPKDKSKVAGYIEIPDADIKEPVYPGPATSEQLNRGVSFAEENESLDDQNISIAGHTFIDRPNYQFTNLKAAKKGSMVYFKVGNETRKYKMTSIRDVKPTAVEVLDEQKGKDKQLTLITCDDYNEKTGVWEKRKIFVATEVKLEHHHHHH
Take B12: in the data set with Abz-LPETGK(Dnp)-CONH2, the “fold enhancement in catalytic efficiency compared to wild type” value is “an approximately 15-fold enhancement in catalytic efficiency at using the LPETG (SEQ ID NO: 32) substrate”, the “fold reduction in Km LPETG compared to wild type” value is on record as “a 5-7-fold reduction in Km LPETG” and the kcat/Km LPETG amounted to 2600 ± 100 M⁻¹ s⁻¹.

B13: srtA K196T (protein)
chain: MQAKPQIPKDKSKVAGYIEIPDADIKEPVYPGPATPEQLNRGVSFAEENESLDDQNISIAGHTFIDRPNYQFTNLKAAKKGSMVYFKVGNETRKYKMTSIRDVKPTDVEVLDEQKGKDKQLTLITCDDYNEKTGVWETRKIFVATEVKLEHHHHHH
For the molecule B13, the kcat/Km LPETG in the data set with Abz-LPETGK(Dnp)-CONH2 worked out at 400 M⁻¹ s⁻¹.
